# Measured values reported in patent US20230167458A1, “FORSKOLIN-INDUCIBLE PROMOTERS AND HYPOXIA-INDUCIBLE PROMOTERS” (ASKLEPIOS BIOPHARMACEUTICAL, INC., priority 2020, published 2023).
# “Also recorded” adds a separate entry of the source.
# Test system: C2C12 human muscle cell line
# Experiment: Luciferase expression from forskolin-inducible promoter, transient transfection in differentiated C2C12
# Format: cell-based
# Protocol: Luciferase readouts were normalised to β-galactosidase to produce normalised relative luminometer units (RLUs). β-galactosidase containing pcDNA6 plasmid was used as internal control for transfection efficiency (Thermofisher, V22020). β-galactosidase activity was measured as per manufacturer's instructions (Mammalian βGalactosidase Assay Kit, 75707/75710, Thermo Scientific) using 25 μl of lysate. 25 μl of lysate was transferred into a microplate well and mixed with 25 μl of β-galactosidase Assay Reagent, equilibrated to room temperature. The mixture was incubated at 37° C. for 30 min and absorbance measured at 405 nm.
# The forskolin-inducible promoters were initially used to drive expression of luciferase in the Huh7 human liver cell line and the C2C12 […]. The promoter constructs were used to drive expression of luciferase in the PM-RQ plasmid. The tested promoters were synthesised directly upstream of the ATG of PM-RQ plasmid.
# • Media was prewarmed at 37° C. before use • C2C12 Complete Medium was used to grow the cells before differentiation. […]
# C2C12 cells were maintained at 37° C., 5% CO2. […] Detachment was monitored under the microscope. • 4 ml C2C12 Complete Medium was added to inactivate Trypsin and the cells were transferred into a 15 ml tube. • The cells were centrifuged for 3 mins at 250 RCF at room temperature. • The supernatant was aspirated • The cells were resuspended by gentle pipetting up and down in 6 ml C2C12 Complete Medium • The cells were counted in a haemocytometer by using trypan blue (Thermofisher, 15250061) to determine the how many of the cells were alive. Trypan blue stains dead cells in blue and this allows for them not to be counted. The cells were resuspended into trypan blue in ration of 1:10, e.g. 10 μl cells and 90 μl trypan blue and counted using a haemocytometer. • The cells were seeded in complete medium at a density dependent on the passage number. […] The abovementioned densities are experimentally determined for efficient differentiation and transfection. […]
molecule,measurement,setting,value
"RTV-019: synthetic forskolin-inducible promoter, SEQ ID NO: 44; 3× ATF6, 4× AP1(1) and 3× HRE1 TFBS and CMV-MP (nucleic acid, Synp-RTV-019, 3× ATF6, 4× AP1(1) and 3× HRE1 TFBS and CMV-MP) DNA: TGACGTGCTGATGATGCGTAGCTAGTAGTTGACGTGCTGATGATGCGTAGCTAGTAGTTGACGTGCTGATGATGCGTAGCTAGTAGTTGAGTCAGATGATGCGTAGCTAGTAGTTGAGTCAGATGATGCGTAGCTAGTAGTTGAGTCAGATGATGCGTAGCTAGTAGTTGAGTCAGATGATGCGTAGCTAGTAGTCTGCACGTAGATGATGCGTAGCTAGTAGTCTGCACGTAGATGATGCGTAGCTAGTAGTCTGCACGTAGATGATGCGTAGCTAGTAGTGCAGTTAGCGTAGCTGAGGTACCGTCGACGATATCGGATCCAGGTCTATATAAGCAGAGCTCGTTTAGTGAACCGTCAGATCGCCTAGATACGCCATCCACGCTGTTTTGACCTCCATAGAAGATCGCCACC",luciferase activity following induction,"C2C12, 20 µM forskolin",high activity; also recorded: much higher activity
same,luciferase activity without induction (background),"C2C12, before addition of forskolin",low background activity
same,fold activation of promoter (luciferase activity),"C2C12 muscle cells, 20 µM forskolin, 24 hrs",6 fold
